{"source": "patent US20260327291", "about": "(published 2026)", "molecular_target": "2019-nCoV N protein (SARS-CoV-2, UniProt P0DTC9)", "assay": "BLI", "data": [{"binder": "WT anti-N antibody (antibody, V domains shown) VH: QIQLVQSGPELKKPGETVKISCKASGFTFTDYAMNWVKQAPGKGLKWMGWLNTYSGEPTYAEDFKGRFAFSLETSASTAYLQINNLKNEDTATYFCARTAILRSYFDYWGQGTTLTVSS VL: DIVMTQSHKFMSTSVGDRVSITCKASEDLSTALAWCQQKPGQSPKLLIYWGSTRHSGVPDRFTGIRSGTDYTLTISSVQAEDLALYYCQQHWSTPLTFGAGTKLELKR", "values": [{"measurement": "Kd", "value": 7.25, "unit": "nM"}]}]}
